PMC6487875 (Biochemistry, 2018)
“And” between values parts separate entries of the source, which are not always exact repeats. Equal values may be shown once.

Biological target: the molecule itself
Experiment: SEC

| Protein | stoichiometry N |
| --- | --- |
| wild type glutamate oxaloacetate transaminase 1 (WT-GOT1) (enzyme, human, UniProt P17174-1 1-413, looked up) MAPPSVFAEVPQAQPVLVFKLTADFREDPDPRKVNLGVGAYRTDDCHPWVLPVVKKVEQKIANDNSLNHEYLPILGLAEFRSCASRLALGDDSPALKEKRVGGVQSLGGTGALRIGADFLARWYNGTNNKNTPVYVSSPTWENHNAVFSAAGFKDIRSYRYWDAEKRGLDLQGFLNDLENAPEFSIVVLHACAHNPTGIDPTPEQWKQIASVMKHRFLFPFFDSAYQGFASGNLERDAWAIRYFVSEGFEFFCAQSFSKNFGLYNERVGNLTVVGKEPESILQVLSQMEKIVRITWSNPPAQGARIVASTLSNPELFEEWTGNVKTMADRILTMRSELRARLEALKTPGTWNHITDQIGMFSFTGLNPKQVEYLVNEKHIYLLPSGRINVSGLTTKNLDYVATSIHEAVTKIQ | 2 and 4 |
| GOT1 T110A mutant (enzyme, human, UniProt P17174-1 1-413, looked up) MAPPSVFAEVPQAQPVLVFKLTADFREDPDPRKVNLGVGAYRTDDCHPWVLPVVKKVEQKIANDNSLNHEYLPILGLAEFRSCASRLALGDDSPALKEKRVGGVQSLGGAGALRIGADFLARWYNGTNNKNTPVYVSSPTWENHNAVFSAAGFKDIRSYRYWDAEKRGLDLQGFLNDLENAPEFSIVVLHACAHNPTGIDPTPEQWKQIASVMKHRFLFPFFDSAYQGFASGNLERDAWAIRYFVSEGFEFFCAQSFSKNFGLYNERVGNLTVVGKEPESILQVLSQMEKIVRITWSNPPAQGARIVASTLSNPELFEEWTGNVKTMADRILTMRSELRARLEALKTPGTWNHITDQIGMFSFTGLNPKQVEYLVNEKHIYLLPSGRINVSGLTTKNLDYVATSIHEAVTKIQ | 2 |
| GOT1 S256A mutant (enzyme, human, UniProt P17174-1 1-413, looked up) MAPPSVFAEVPQAQPVLVFKLTADFREDPDPRKVNLGVGAYRTDDCHPWVLPVVKKVEQKIANDNSLNHEYLPILGLAEFRSCASRLALGDDSPALKEKRVGGVQSLGGTGALRIGADFLARWYNGTNNKNTPVYVSSPTWENHNAVFSAAGFKDIRSYRYWDAEKRGLDLQGFLNDLENAPEFSIVVLHACAHNPTGIDPTPEQWKQIASVMKHRFLFPFFDSAYQGFASGNLERDAWAIRYFVSEGFEFFCAQAFSKNFGLYNERVGNLTVVGKEPESILQVLSQMEKIVRITWSNPPAQGARIVASTLSNPELFEEWTGNVKTMADRILTMRSELRARLEALKTPGTWNHITDQIGMFSFTGLNPKQVEYLVNEKHIYLLPSGRINVSGLTTKNLDYVATSIHEAVTKIQ | 2 |
